The text below walks through data of patent US7109303.

Assay [1] concerns the target murine p55 receptor (on mouse L-M cells) (murine) (UniProt P25118). Briefly: cell-based or functional assay.
For assay [2], the target named is TNF receptors (on L-M mouse fibroblasts). Briefly: cell-based or functional assay.

UniProt P25118, sequence (P25118 30-454): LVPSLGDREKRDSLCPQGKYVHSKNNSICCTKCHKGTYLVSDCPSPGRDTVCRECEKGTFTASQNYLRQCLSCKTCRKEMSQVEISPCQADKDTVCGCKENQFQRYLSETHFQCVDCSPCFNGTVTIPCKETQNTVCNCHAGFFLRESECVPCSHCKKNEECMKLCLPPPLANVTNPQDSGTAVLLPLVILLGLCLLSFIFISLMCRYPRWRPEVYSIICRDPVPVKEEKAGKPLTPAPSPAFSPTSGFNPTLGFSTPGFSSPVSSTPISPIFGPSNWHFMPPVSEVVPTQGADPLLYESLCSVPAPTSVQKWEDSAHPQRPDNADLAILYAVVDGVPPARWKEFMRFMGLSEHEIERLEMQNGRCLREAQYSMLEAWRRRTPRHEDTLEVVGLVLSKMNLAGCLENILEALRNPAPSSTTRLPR

Take “human NGR-TNF (CNGRCG-TNF1-157), non-refolded (from UniProt P01375 1-233)”: the in vitro cytolytic activity on mouse L-M cells in assay [1] was 6.11e+07 units/mg.
In assay [2], “murine NGR-TNF (Cys-Asn-Gly-Arg-Cys-Gly-TNF1-156) (from UniProt P06804 80-235)” gave an in vitro cytotoxic activity, standard cytolytic assay with L-M cells of 1.8e+08 units/mg.
For the substance “human NGR-TNF (CNGRCG-TNF1-157), refolded (from UniProt P01375 1-233)”, in assay [1], the in vitro cytolytic activity on mouse L-M cells is 5.09e+07 units/mg.
